Drawing on PMC10161774, this text covers stoichiometry N for 1 molecule.

This assay has as its target T1, Recombinant tissue transglutaminase (tG) (human), P21980.
T1 chain: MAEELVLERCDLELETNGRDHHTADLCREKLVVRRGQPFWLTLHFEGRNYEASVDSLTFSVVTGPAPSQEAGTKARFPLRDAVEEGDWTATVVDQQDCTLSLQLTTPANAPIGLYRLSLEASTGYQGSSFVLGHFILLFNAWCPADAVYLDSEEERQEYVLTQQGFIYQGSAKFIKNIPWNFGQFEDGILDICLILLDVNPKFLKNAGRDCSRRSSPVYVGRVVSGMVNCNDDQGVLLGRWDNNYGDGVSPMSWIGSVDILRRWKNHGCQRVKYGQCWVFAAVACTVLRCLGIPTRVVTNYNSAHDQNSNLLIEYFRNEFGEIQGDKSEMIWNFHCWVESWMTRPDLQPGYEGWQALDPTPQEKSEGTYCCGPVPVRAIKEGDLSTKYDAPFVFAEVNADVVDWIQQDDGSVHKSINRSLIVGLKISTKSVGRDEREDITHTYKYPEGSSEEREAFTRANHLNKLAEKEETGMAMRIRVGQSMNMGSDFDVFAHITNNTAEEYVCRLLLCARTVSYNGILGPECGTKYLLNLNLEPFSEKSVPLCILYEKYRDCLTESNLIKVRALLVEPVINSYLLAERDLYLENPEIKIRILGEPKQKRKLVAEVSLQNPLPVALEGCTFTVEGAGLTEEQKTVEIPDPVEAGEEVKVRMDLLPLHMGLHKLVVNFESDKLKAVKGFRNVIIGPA
Nature of the assay: time-resolved SAXS; Kenics mixer (straight opening device, reaction class 3); 2 mg ml^-1 tG mixed with 4 mM CaCl2 in 20 mM HEPES pH 7.5, 100 mM NaCl, 10% glycerol, 1 mM DTT; time points 32-1500 ms; monomer to dimer. The following applies: remark: other sources report otherwise.

B1: Recombinant tissue transglutaminase (tG), P21980 1-687 (enzyme)
chain: T1 chain
Broadly, the stoichiometry N is a count of units in the complex or per binding partner. Turning to B1, the stoichiometry N came to 2.
